Laboratory results taken from PMC7564285.

Assays:
[1] = target: γHV68 M11 F79A (murine γ-herpesvirus 68) (UniProt P89884); assay: ITC; Beclin 1 BH3D peptide titrated into M11 protein, 25 injections of 2 μL, 14 °C; 50 mM HEPES pH 7.5, 150 mM NaCl, 2 mM βME; independent model
[2] = target: γHV68 M11 L103A (murine γ-herpesvirus 68) (UniProt P89884); assay: as above
[3] = target: γHV68 M11 L128A (murine γ-herpesvirus 68) (UniProt P89884); assay: as above
[4] = target: γHV68 M11 M119A (murine γ-herpesvirus 68) (UniProt P89884); assay: as above
[5] = target: γHV68 M11 Y97A (murine γ-herpesvirus 68) (UniProt P89884); assay: as above
[6] = target: M11 A63K (murine γ-herpesvirus 68) (UniProt P89884); assay: ITC; BH3D peptide titrated into M11 protein (25 injections of 2 μL); 14 °C; 50 mM HEPES pH 7.5, 150 mM NaCl, 2 mM βME; co-dialyzed overnight; independent model
[7] = target: M11 F48A (murine γ-herpesvirus 68) (UniProt P89884); assay: as above
[8] = target: M11 Y56A (murine γ-herpesvirus 68) (UniProt P89884); assay: as above
[9] = target: murine γ-herpesvirus 68 vBCL2 M11, wild type (murine γ-herpesvirus 68) (UniProt P89884); assay: as above

Beclin 1 BH3D peptide
Ka [1]: 4.6e+06 M⁻¹
Kd [1]: 2200 nM
Ka [2]: 417000 M⁻¹
Kd [2]: 2400 nM
Ka [3]: 1.12e+06 M⁻¹
Kd [3]: 900 nM
Ka [4]: 527000 M⁻¹
Kd [4]: 1900 nM
Ka [5]: 920000 M⁻¹
Kd [5]: 1130 nM
Ka [6]: 160000 M⁻¹
Kd [6]: 6500 nM
dH [6]: -9.49 kcal/mol
Ka [7]: 158000 M⁻¹
Kd [7]: 63400 nM
dH [7]: -8.63 kcal/mol
Ka [8]: 300000 M⁻¹
Kd [8]: 3380 nM
dH [8]: -9.03 kcal/mol
Ka [9]: 1.2e+06 M⁻¹
Kd [9]: 840 nM
dH [9]: -12.8 kcal/mol
